The record followed here is patent US20230226096A1 (Orna Therapeutics, Inc., priority 2020, published 2023).

B1: Hubei tombus-like virus 9 (nucleic acid)
DNA: GGACCATCCAGGCAGGTGTAGGCTAGTACCCTCACCTGACCTGTCGCGATGTTTGGCTTTGTGAGGCTTGTGGGAGGATCCCTTGGCCCATGCATTGCTGCTGTCATCGTGAAAAATGTTGTATGCTCGCACCTGGCGTGGAGGAAACGGCATTTGACGGATGCTAAGGAGGATTTGAAGGTCCTCAACTCCCATGCCTTATTACAAGTCCCCTTTCCTTCAAGCTTCGAGCCCACGTCTGTGACGAGCAGAGGTGAGGTTGGAGTCAAGAGGAGTCCTATTCAAGCTGTTCGCAGCAAGAACCATAAAACTTTCATTGCTCAATGGGCAAGAGCGGCTAAGGCTCGGTTCTCGTTTGCACGACAGTGTGAGCGGAGCCCTGTAAATGTCGCGGCCCTTCATCGGTGGTTTGCATCGGAGTTTAAGAAAATTGGCATGAACTTGCTCCAGGTTTCGTACGTGATCGATGAGGTTGTTGAACTTAGTTTGGAACCAACGTATGAGCGTATGGTGTCCGAAACTAAGAAGCAATTCCGTCATCGGGCACGTATGGAATACTACAACGAGAAAAAATGCCTTGAAAAGATCCACTAGGAACGC
B2: Human TMEV-like cardiovirus (nucleic acid, listed as Cardiovirus sp.)
DNA: TCCGACGTGGTTGGAATTAACATCTTTTCCGACGAAAGTGCTATTATGCCTCCCCGATTGTGTGATGCTTTCTGCCCTGCTGGGCGGAGCGTCCTCGGGTTGAGAAACCTTGAATCTTTTCCTTTGGAGCCTTGGCTCCCCCGGTCTAAGCCGCTTGGAATATGACAGGGTTATTTTCCAAACTCTTTATTTCTACTTTCATGGGTTCTATCCATGAAAAGGGTATGTGTTGCCCCTTCCTTCTTTGGAGAATCTGCGCGGCGGTCTTTCCGTCTCTCAACAGGCGTGGATGCAACATGCCGGAAACGGTGAAGAAAACAGTTTTCTGTGGAAATTTAGAGTGGACATCGAAACAGCTGTAGCGACCTCACAGTAGCAGCGGATTCCCCTCTTGGCGACAAGAGCCTCTGCGGCCAAAAGCCCCGTGGATAAGATCCACTGCTGTGAGCGGTGCAACCCCAGCACCCTGGTTCGATGGCCATTCTCTATGGAACCAGAAAATGGTTTTCTCAAGCCCTCCGGTAGAGAAGCCAAGAATGTCCTGAAGGTACCCCGCGCGCGGGATCTGATCAGGAGACCAATTGGCAGTGCTTTACGCTGCCACTTTGGTTTAAAAACTGTCACAGCTTCTCCAAACCAAGTGGTCTTGGTTTTCCAATTTTGTTGACTGACAAT
B3: EV22 (nucleic acid)
DNA: CCTTATAACCCGACTTGCTGAGCTTCTATAGGAAAAAACCCTTTCCCAGCCTTGGGGTGGCTGGTCAATAAAAACCCCCATAGTAACCAACACCTAAGACAATTTGATCAACCCTATGCCTGGTCCCCACTATTCGAAGGCAACTTGCAATAAGAAGAGTGGAACAAGGATGCTTAAAGCATAGTGTAAATGATCTTTTCTAACCTGTATTATGTACAGGGTGGCAGATGGCGTGCCATAAATCTATTAGTGGGATACCACGCTTGTGGACCTTATGCCCACACAGCCATCCTCTAGTAAGTTTGTAAAATGTCTGGTGAGATGTGGGAACTTATTGGAAACAACAATTTGCTTAATAGCATCCTAGTGCCAGCGGAACAACATCTGGTAACAGATGCCTCTGGGGCCAAAAGCCAAGGTTTGACAGACCCATTAGGATTGGTTTCAAAACCTGAATTGTTGTGGAAGATATTCAGTACCTATCAATCTGGTAGTGGTGCAAACACTAGTTGTAAGGCCCACGAAGGATGCCCAGAAGGTACCCGCAGGTAACAAGAGACACTGTGGATCTGATCTGGGGCCAACTACCTCTATCAGGTGAGTTAGTTAAAAAACGTCTAGTGGGCCAAACCCAGGGGGGATCCCTGGTTTCCTTTTATTGTTAATATTGACATT
B4: Farmington virus (nucleic acid)
DNA: ACGACGCATAAGCAGAGAAACATAAGAGACTATGTTCATAGTCACCCTGTATTCATTATTGACTTTTATGACCTATTATTAGACCCTTCACGGGTAAATCCTTCTCCTTGCAGTTCTCGCCAAGTACCTCCAAAGTCAGAACG
B5: Human rhinovirus 1 (nucleic acid, listed as Rhinovirus sp.)
DNA: TTAAAACTGGGTGTGGGTTGTTCCCACCCACACCACCCAATGGGTGTTGTACTCTGTTATTCCGGTAACTTTGTACGCCAGTTTTTCCCTCCCCTCCCCATCCTTTTACGTAACTTAGAAGTTTTAAATACAAGACCAATAGTAGGCAACTCTCCAGGTTGTCTAAGGTCAAGCACTTCTGTTTCCCCGGTTGATGTTGATATGCTCCAACAGGGCAAAAACAACAGATACCGTTATCCGCAAAGTGCCTACACAGAGCTTAGTAGGATTCTGAAAGATCTTTGGTTGGTCGTTCAGCTGCATACCCAGCAGTAGACCTTGCAGATGAGGCTGGACATTCCCCACTGGTAACAGTGGTCCAGCCTGCGTGGCTGCCTGCGCACCTCTCATGAGGTGTGAAGCCAAAGATCGGACAGGGTGTGAAGAGCCGCGTGTGCTCACTTTGAGTCCTCCGGCCCCTGAATGCGGCTAACCTTAAACCTGCAGCCATGGCTCATAAGCCAATGAGTTTATGGTCGTAACGAGTAATTGCGGGATGGGACCGACTACTTTGGGTGTCCGTGTTTCACTTTTTCCTTTATTAATTGCTTATGGTGACAATATATATATTGATATATATTGGCATC
B6: Avian infectious bronchitis virus (nucleic acid)
DNA: ACTTAAGATAGATATTAATATATATCTATTACACTAGCCTTGCGCTAGATTTTTAACTTAACAAAACGGACTTAAATACCTACAGCTGGTCCTCATAGGTGTTCCATTGCAGTGCACTTTAGTGCCCTGGATGGCACCTGGCCACCTGTCAGGTTTTTGTTATTAAAATCTTATTGTTGCTGGTATCACTGCTTGTTTTGCCGTGTCTCACTTTATACATCTGTTGCTTGGGCTACCTAGTGTCCAGCGTCCTACGGGCGTCGTGGCTGGTTCGAGTGCGAGGAACCTCTGGTTCATCTAGCGGTAGGCGGGTGTGTGGAAGTAGCACTTCAGACGTACCGGTTCTGTTGTGTGAAATACGGGGTCACCTCCCCCCACATACCTCTAAGGGCTTTTGAGCCTAGCGTTGGGCTACGTTCTCGCATAAGGTCGGCTATACGACGTTTGTAGGGGGTAGTGCCAAACAACCCCTGAGGTGACAGGTTCTGGTGGTGTTTAGTGAGCAGACATACAATAGACAGTGACAAC
B7: Megirivirus E (nucleic acid)
DNA: GCTTGGCAACCTCATATCGTTACTCTGCCGACCAGTCTGGGTCGTGTGGCCACACAATGGGATTCGTTCTGTTGTGTAGAGTCACATGGCATTACTGGGCTGATCGGTGGGGATCCGTTGCCACCCCTAAACCCTTACATTTACTGGACTGCTTTTCTTGGCCCCGGAATGATTCGCTCACCCGCGATGAGGACTGTTGTTCTTATTATGGCAGGATTACGCGTCTGGTCCGCGTAAGGACTAATTCCTATGTTTATACGTTACTACCTTGTTCTGAACGGTGGGCGCCACCCCGCCTAGTAGGATCCTGGCTTATCGTGTAGACCTCTAGGGACCACATTAGCTAGAGTGTAGGCTGCTATGGATGGAGTAGTGACCCCTTTTTGGGTATCACTCTCTAAGACTCCGGAATGTGTCATAGTACGCTGGAAATCCTTACTTGTTTTTCCATGAGGGGGAGGTGGTGCTGAAATATTGCAAGCCACCCCTCGGTTAAAACAGTTTGGTGCCGCTTATGCCATATTACCGCCCCTTGTAGTTGGGCTGTTTTTGCAGCTCCGGGTTAGTAGAGTACCATAGTGGACGCGGTGTTGGGAATCACCGCCTTGGCTGCACACTGCTTGATAGAGCTGCGGCTGGTCAAGCTAATTGTGGTATAACCAGTTGATTTGGCAT
B8: Hubei zhaovirus-like virus 1 (nucleic acid)
DNA: GTGCAGGATGGCCTTTCCCATCTTAAGTGGTTTGTAGGATTTCGTGGGTCCATACCCCCCGATTTCTTGGTACGTATTCCATGCACGGAGAATACGACCAAAACTCTTATTTCAAAAAATATTATTTTTTACTCTTGTGGGCTGAGTGCGACCCACCAGTTCCAGCTTAGCAACCTGGAAGTTGTTGGAGATTTATGGAACCAAATTACACATGCGTGGAGTGCCGCCACTCCGTATCTGTTCACTCATTACGCGATTAAGTTCTGCGACGAGACGAGCGAA
B9: Feline infectious peritonitis virus (nucleic acid)
DNA: ACTTTTAAAGTAAAGTGAGTGTAGCGTGGCTATAACTCTTCTTTTACTTTAACTAGCCTTGTGCTAGATTTGTCTTCGGACACCAACTCGAACTAAACGAAATATTTGTCTCTCTATGAAACCATAGAAGACAAGCGTTGATTATTTCACCAGTTTGGCAATCACTCCTAGGAACGGGGTTGAGAGAACGGCGCACCAGGGTTCCGTCCCTGTTTGGTAAGTCGTCTAGTATTAGCTGCGGCGGTTCCGCCCGTCGTAGTTGGGTAGACCGGGTTCCGTCCTGTGATCTCCCTCGCCGGCCGCCAGGAGA
B10: Hubei tombus-like virus 32 (nucleic acid)
DNA: TTCGGGTTTACCCGCGTAAGCGGCCACACTGACTGGTTGTCGGTGTTGAATTTGTATACCAGATGAGGAGACGTTACCACCGTCTCGGCAGTGCTACGTCTGGGAAAGGACTGTGATAGTGGACAGTCCTACCGTCTTTAGATACATTGCGTTGTGTATAGCCCGGGAGGGATTAACTAATAGCAACGCAATGCACACGGCGGTTCGGATTTGCTTGACTGATGGAAAGACATCTAAGTTCTAATTGAACC
B11: Hubei sobemo-like virus 3 (nucleic acid)
DNA: GAGATGTTTGCGTGGGCCGTTGCGCTGCGGGCGGCCCACCTCCCTACGGGGACCGTGAGACACCGCTGGGGAAGGCCCCCACCCCCGGCCAAGGGGATCCTGCCGAGAGGCAGGAGAAAGAGGCCCAGCCCTCTGGGGCGCCTTTAGGGGTGCCTGGGAGGGAAGTACCCGAGCCGGGCGGCCGGTCGGGTGCGGCTGTGCAGTTCGAGGCTAACCGTAAGGAAGGCCTGAGCTGCCTCGGCTTGTCGGAAAGGAAGACGAAGGCACTTATCAAGGCTTTCAGGAAGCAGGAGCGCAATTACAGCGCGCGCCGTGCGGCCTGGATTAACCGCATTTGGCCG

For this data set, the system named is HEK293 cells. Type of data set: cell-based, human. As to conditions: luminescence from secreted Gluc in supernatant 24 hours after transfection of HEK293 cells; circular RNA encoding Gluc with the named IRES (UTR truncated to 675 nt).
Molecule B1 returned an Expression of 9.28E+04. For the molecule B2, the Expression came out at 4.48E+07. Molecule B3 registered an Expression of 1.95E+07. B4 displayed an Expression of 1.22E+05.

B5: the Expression is 7.40E+07. As to B6, the Expression came out at 2.84E+05. The molecule B7 returned an Expression of 1.10E+07. In the case of B8, the Expression came out at 1.03E+05.

The molecule B9 returned an Expression of 1.35E+05.

Molecule B10 registered an Expression of 9.23E+04. In the case of B11, the Expression is listed as 1.17E+05.
